Experiments:
DNA polymerase beta WT = DNA polymerase beta WT (UniProt P06766 1-335); test: EMSA
[1] = biological target: DNA polymerase beta I260Q (UniProt P06766 1-335, I260Q); test: EMSA

B1: CII5T A:A (5 nt gap, mispaired primer terminus) (dsDNA)
DNA 1: TTGCGACTTATCAACGCCCACAA
DNA 2: GCTGTCTTCTCAGTTTC
DNA 3: GAAACTGAGAAGACAGCTACTGATGTGGGCGTTGATAAGTCGCAA
modifications: 5'-phosphate on downstream oligo and template
DNA polymerase beta WT
  Kd: 6 nM
[1]
  Kd: 2 nM
